Data reported in PMC4947154.

B1: human transcobalamin (holo-TC, cyanocobalamin-bound) (natural protein)
chain: EMCEIPEMDSHLVEKLGQHLLPWMDRLSLEHLNPSIYVGLRLSSLQAGTKEDLYLHSLKLGYQQCLLGSAFSEDDGDCQGKPSMGQLALYLLALRANCEFVRGHKGDRLVSQLKWFLEDEKRAIGHDHKGHPHTSYYQYGLGILALCLHQKRVHDSVVDKLLYAVEPFHQGHHSVDTAAMAGLAFTCLKRSNFNPGRRQRITMAIRTVQEEILKAQTPEGHFGNVYSTPLALQFLMTSPMRGAELGTACLKARVALLASLQDGAFQNALMISQLLPVLNHKTYIDLIFPDCLAPRVMLEPAAETIPQTQEIISVTLQVLSLLPPYRQSISVLAGSTVEDVLKKAHELGGFTYETQASLSGPYLTSVMGKAAGEREFWQLLRDPNTPLLQGIADYRPKDGETIELRLVSW
B2: TCα (α domain of human transcobalamin, residues 1-290) (domain or fragment)
chain: EMCEIPEMDSHLVEKLGQHLLPWMDRLSLEHLNPSIYVGLRLSSLQAGTKEDLYLHSLKLGYQQCLLGSAFSEDDGDCQGKPSMGQLALYLLALRANCEFVRGHKGDRLVSQLKWFLEDEKRAIGHDHKGHPHTSYYQYGLGILALCLHQKRVHDSVVDKLLYAVEPFHQGHHSVDTAAMAGLAFTCLKRSNFNPGRRQRITMAIRTVQEEILKAQTPEGHFGNVYSTPLALQFLMTSPMRGAELGTACLKARVALLASLQDGAFQNALMISQLLPVLNHKTYIDLIFPD

Key:
[1] = biological target: CD320 extracellular, TC-binding part (MBP cleaved), as used for biochemical analysis of the complex (human) (UniProt Q9NPF0); assay: cross-linking; purified complex at 10 mg/ml cross-linked with glutaraldehyde, 1 h RT, then high-mass MALDI-TOF mass spectrometry
[2] = biological target: MBP-tagged, biotinylated CD320 (CD320AVI) (human) (UniProt Q9NPF0); assay: ELISA; solid-phase binding assay as a2, TC diluted in buffer with 100 mM sodium acetate pH 4.8, 0.5 mM CaCl2, 150 mM NaCl; n=5
[3] = biological target: MBP-tagged, biotinylated CD320 (CD320AVI) (human) (UniProt Q9NPF0); assay: ELISA; solid-phase binding assay as a2, TC diluted in buffer with 100 mM Tris-HCl pH 7.5, 0.5 mM CaCl2, 150 mM NaCl; n=5
[4] = biological target: MBP-tagged, biotinylated CD320ΔE88 (Avi Tag) (human) (UniProt Q9NPF0); assay: ELISA; solid-phase binding assay: biotinylated MBP-tagged receptor on Neutravidin plates, tag-less TC serially diluted in 20 mM Tris pH 7.5, 0.5 mM CaCl2, 150 mM NaCl, 0.05% Tween-20, 1 h RT; TC detected with antibody A-5; single-site fit, n=5
[5] = biological target: MBP-tagged, biotinylated CD320 (CD320AVI) (human) (UniProt Q9NPF0); assay: as above
[6] = biological target: CD320(Gly4Ser)4 (flexible linker mutant: EGF-like domain replaced by (Gly4Ser)4) (human) (UniProt Q9NPF0); assay: native MS; native ESI-MS of the purified complex and of its individually purified SEC peaks
CD320(Gly4Ser)4 (flexible linker mutant: EGF-like domain replaced by (Gly4Ser)4) (human), sequence (Q9NPF0 other isoform, or with tags, fused parts or gaps, change not shown): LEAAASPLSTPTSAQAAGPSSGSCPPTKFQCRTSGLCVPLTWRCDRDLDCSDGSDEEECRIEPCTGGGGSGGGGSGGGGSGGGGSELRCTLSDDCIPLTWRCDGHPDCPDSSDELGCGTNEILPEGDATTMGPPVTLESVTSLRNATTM

[7] = biological target: CD320 extracellular, TC-binding part (MBP cleaved), as used for biochemical analysis of the complex (human) (UniProt Q9NPF0); assay: co-expression and co-purification; TC construct and His9-MBP-CD320 construct co-expressed and secreted from Sf21 cells, complex captured from the medium on Ni-NTA through the receptor's tag

Row | Binder | stoichiometry N [1] | Kd [2] [nM] | Kd [3] [nM] | Kd [4] [nM] | Kd [5] [nM] | stoichiometry N [6] | stoichiometry N [7]
1 | B1 | 1 TC:CD320 | 58 | 1 | 1.5 | 1.5 | 1 TC:CD320 | 
2 | B2 |  |  |  |  |  |  | 1 TCα:CD320
